Patent publication US20230044037A1 (INTERVET, published 2023)

Biological target: T1, canine IL-4 receptor alpha (IL-4Rα) on DH82 cells (canine)
T1 construct: Endogenous receptor of the DH82 cells in the STAT-6 assay; also called canine IL-4Rα; IL-4R alpha
T1 chain: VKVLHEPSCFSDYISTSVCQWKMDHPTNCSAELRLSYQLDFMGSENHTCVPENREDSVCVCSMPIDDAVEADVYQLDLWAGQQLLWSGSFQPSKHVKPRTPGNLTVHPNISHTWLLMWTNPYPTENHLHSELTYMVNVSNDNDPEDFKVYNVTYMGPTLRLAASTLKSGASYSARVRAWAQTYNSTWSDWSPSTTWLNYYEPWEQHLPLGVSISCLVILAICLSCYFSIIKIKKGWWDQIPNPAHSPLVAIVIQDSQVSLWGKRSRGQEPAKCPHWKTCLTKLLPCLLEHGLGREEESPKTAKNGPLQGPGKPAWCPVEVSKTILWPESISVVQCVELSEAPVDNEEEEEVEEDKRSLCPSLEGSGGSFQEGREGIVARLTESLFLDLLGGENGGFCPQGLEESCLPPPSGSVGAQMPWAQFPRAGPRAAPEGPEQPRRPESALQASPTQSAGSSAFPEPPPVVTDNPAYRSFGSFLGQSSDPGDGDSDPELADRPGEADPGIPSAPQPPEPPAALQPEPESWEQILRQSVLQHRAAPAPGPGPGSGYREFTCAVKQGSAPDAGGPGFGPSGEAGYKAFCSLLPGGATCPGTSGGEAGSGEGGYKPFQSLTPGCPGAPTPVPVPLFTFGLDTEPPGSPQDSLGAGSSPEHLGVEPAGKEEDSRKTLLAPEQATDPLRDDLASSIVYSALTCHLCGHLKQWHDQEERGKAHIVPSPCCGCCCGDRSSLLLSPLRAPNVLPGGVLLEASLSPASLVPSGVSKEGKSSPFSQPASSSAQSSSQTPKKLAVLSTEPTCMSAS
Test: told from inhibition of IL-4- and IL-13-mediated STAT-6 phosphorylation in DH82 cells (AlphaLISA)

binding result: binds
B1: c152H11-H3L3 (c152H11VL3-cCLk-s/c152H11VH3-cIgG-Bm) (antibody, V domains shown)
VH: EVQLVESGGDLVKPGGSLRLSCAASGFTFSSYGMSWVRQAPDKRLQWVATISRGGDYTYYPDSVKGRFTISRDNAKNTLYLQMNSLRAEDTAMYYCARGTLNNRGFASWGQGTLVTVSS
VL: EIVMTQSPASLSLSQEEKVTITCKASQNVGTNVAWYQQKPGQAPKLLIYSASYRYSGLPDRFSGSGSGTDFSFTISSLEPEDVAEFFCQQYNSYPYTFGQGTKLEIKR
notes: Caninized anti-canine IL-4R alpha antibody: VH3 heavy chain on modified canine IgG-B (IgG-Bm), kappa light chain L3
